PMC11359169, “[…] CLOCK-ASSOCIATED1 Delays Flowering by Directly Inhibiting the Transcription of BcSOC1 in Pak-choi”

Tests used:
BcFLC = BcFLC (Brassica campestris (syn. Brassica …, UniProt A4L9R7 1-196)); assay: EMSA; cold probe competition 10x, 100x, 250x; Chemiluminescent EMSA kit (Beyotime); buffer, salt, pH and temperature not stated; conditions: protein: recombinant; tags: GST (pGEX-4T-1); chain copies: 2; label: biotin (5' and 3' ends per Methods); blunt
BcCCA1 = BcCCA1 (Brassica campestris (syn. Brassica …, UniProt F5B4H3 1-554)); assay: as above; conditions: protein: recombinant; tags: His (pCold-His); label: biotin (5' and 3' ends per Methods); blunt
Chain of BcCCA1 (Brassica campestris (F5B4H3 entry or part of it): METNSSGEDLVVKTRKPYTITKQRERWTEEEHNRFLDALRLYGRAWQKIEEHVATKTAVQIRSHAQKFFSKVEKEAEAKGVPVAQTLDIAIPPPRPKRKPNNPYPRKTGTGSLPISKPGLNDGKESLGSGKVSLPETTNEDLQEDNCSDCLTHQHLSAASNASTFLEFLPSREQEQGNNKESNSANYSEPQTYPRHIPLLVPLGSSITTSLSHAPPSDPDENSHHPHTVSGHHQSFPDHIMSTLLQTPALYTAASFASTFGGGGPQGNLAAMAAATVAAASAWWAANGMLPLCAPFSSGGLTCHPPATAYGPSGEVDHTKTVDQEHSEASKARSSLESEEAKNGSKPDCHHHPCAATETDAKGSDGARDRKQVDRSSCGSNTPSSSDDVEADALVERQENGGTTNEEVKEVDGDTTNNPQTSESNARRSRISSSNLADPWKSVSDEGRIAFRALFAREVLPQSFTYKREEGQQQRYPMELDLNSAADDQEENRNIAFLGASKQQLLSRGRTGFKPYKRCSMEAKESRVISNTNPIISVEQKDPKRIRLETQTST

Chain of BcFLC (Brassica campestris (A4L9R7 entry or part of it): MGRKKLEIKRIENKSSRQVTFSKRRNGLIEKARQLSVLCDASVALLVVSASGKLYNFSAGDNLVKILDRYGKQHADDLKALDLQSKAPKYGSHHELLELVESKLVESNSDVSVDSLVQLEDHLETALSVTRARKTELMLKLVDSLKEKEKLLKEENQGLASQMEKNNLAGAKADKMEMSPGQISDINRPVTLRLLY

Row | Binder | binding result (BcFLC) | binding result (BcCCA1)
1 | GATA probe (BcSOC1 promoter) (dsDNA) DNA 1: GTAAAGGATGAGGTTTCAAG DNA 2: CTTGAAACCTCATCCTTTAC | binds | –
2 | MBS probe (BcSOC1 promoter) (dsDNA) DNA 1: TCCCCGTCAACGTATGTTGA DNA 2: TCAACATACGTTGACGGGGA | – | binds
